Results on 17 molecules are retold here after patent publication US11814435B2, “Therapeutic antibodies and their uses” (PFIZER INC., priority 2015, dated 2023).

Where a chain is given by its changes, count along the chain named.

Sequences and labels used below:
T1: hBCMA (human BCMA) (Homo sapiens, UniProt Q02223)
T1 sequence (Q02223 1-184): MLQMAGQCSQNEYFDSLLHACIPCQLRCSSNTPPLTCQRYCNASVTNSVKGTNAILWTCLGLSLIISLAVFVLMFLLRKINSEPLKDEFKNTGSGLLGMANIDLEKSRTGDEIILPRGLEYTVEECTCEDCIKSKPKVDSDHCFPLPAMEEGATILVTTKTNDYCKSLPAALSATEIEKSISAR

B1: L1.GDF/L3.KW/H3.AP: anti-BCMA antibody (antibody, V domains shown)
VH: EVQLLESGGGLVQPGGSLRLSCAASGFTFGSYAMTWVRQAPGKGLEWVSAISGSGGNTFYADSVKGRFTISRDNSKNTLYLQMNSLRAEDTAVYYCARVSPIAAPMDYWGQGTLVTVSS
VL: EIVLTQSPGTLSLSPGERATLSCRASQSVGDFYLAWYQQKPGQAPRLLIYGASSRATGIPDRFSGSGSGTDFTLTISRLEPEDFAVYYCKHYGWPPSFTFGQGTKVEIK
B2: L1.LGF/L3.KW/H3.AP: anti-BCMA antibody (antibody, V domains shown)
VH: B1 VH
VL: B1 VL with V29L, D31S
B3: L1.GDF/L3.NY/H3.AL: anti-BCMA antibody (antibody, V domains shown)
VH: B1 VH with P105L
VL: B1 VL with K90Q, G93N, W94Y
B4: L1.GDF/L3.NY/H3.AP: anti-BCMA antibody (antibody, V domains shown)
VH: B1 VH
VL: B1 VL with K90Q, G93N, W94Y
B5: L1.LGF/L3.NY/H3.AL: anti-BCMA antibody (antibody, V domains shown)
VH: B1 VH with P105L
VL: B1 VL with V29L, D31S, K90Q, G93N, W94Y
B6: L1.LGF/L3.KW/H3.AL: anti-BCMA antibody (antibody, V domains shown)
VH: B1 VH with P105L
VL: B1 VL with V29L, D31S
B7: L1.LGF/L3.NY/H3.AP: anti-BCMA antibody (antibody, V domains shown)
VH: B1 VH
VL: B1 VL with V29L, D31S, K90Q, G93N, W94Y
B8: L1.GDF/L3.KW/H3.AL: anti-BCMA antibody (antibody, V domains shown)
VH: B1 VH with P105L
VL: B1 VL
B9: L1.LGF/L3.PY/H3.AP: anti-BCMA antibody (antibody, V domains shown)
VH: B1 VH
VL: B1 VL with V29L, D31S, K90Q, G93P, W94Y
B10: L3.PY/L3.KF/H3.YA: anti-BCMA antibody (antibody, V domains shown)
VH: B1 VH with A103Y, P105G
VL: B1 VL with G30S, D31S, F32S, H91F, G93P, W94Y
B11: L3.PY/H2.YQ: anti-BCMA antibody (antibody, V domains shown)
VH: B1 VH with G53Y, S54Q, A104S, P105G
VL: B1 VL with G30S, D31S, F32S, K90Q, G93P, W94Y
B12: L3.PY/L3.KF/H3.TAQ: anti-BCMA antibody (antibody, V domains shown)
VH: B1 VH with A97T, P105Q
VL: B1 VL with G30S, D31S, F32S, H91F, G93P, W94Y
B13: L3.PY/H2.QR: anti-BCMA antibody (antibody, V domains shown)
VH: B1 VH with S63Q, V64R, A104S, P105G
VL: B1 VL with G30S, D31S, F32S, K90Q, G93P, W94Y
B14: L3.PY/H2.LT: anti-BCMA antibody (antibody, V domains shown)
VH: B1 VH with G53L, S54T, A104S, P105G
VL: B1 VL with G30S, D31S, F32S, K90Q, G93P, W94Y
B15: L3.PY/H2.DY: anti-BCMA antibody (antibody, V domains shown)
VH: B1 VH with S52D, G53Y, A104S, P105G
VL: B1 VL with G30S, D31S, F32S, K90Q, G93P, W94Y
B16: L3.PY/H2.HA: anti-BCMA antibody (antibody, V domains shown)
VH: B1 VH with G53H, S54A, A104S, P105G
VL: B1 VL with G30S, D31S, F32S, K90Q, G93P, W94Y
B17: L3.PY/L3.KF/H3.AE: anti-BCMA antibody (antibody, V domains shown)
VH: B1 VH with P105E
VL: B1 VL with G30S, D31S, F32S, H91F, G93P, W94Y

In the first test the test system is cyBCMA. The test is described as follows: Kinetics and affinity of cyBCMA/human IgG interactions by SPR (Bio-Rad Proteon XPR36). The settings on record: 25° C. The test is classed as binding, cynomolgus. A general note: Surface plasmon resonance follows binding to a sensor surface in real time, without labels.
For B1, the “ka (1/Ms) cyBCMA @ 25° C.” value amounted to 814000 M⁻¹ s⁻¹ and the “kd (1/s) cyBCMA @25° C.” value is 0.0203 s⁻¹.
Turning to B2, the “ka (1/Ms) cyBCMA @ 25° C.” value stood at 554000 M⁻¹ s⁻¹ and the “kd (1/s) cyBCMA @25° C.” value was 0.0154 s⁻¹.
For B3 the same measures were 900000 M⁻¹ s⁻¹ and 0.0219 s⁻¹.
B4: the “ka (1/Ms) cyBCMA @ 25° C.” value was found to be 1.36e+06 M⁻¹ s⁻¹ and the “kd (1/s) cyBCMA @25° C.” value was 0.00702 s⁻¹.
B5: the “ka (1/Ms) cyBCMA @ 25° C.” value was determined as 635000 M⁻¹ s⁻¹ and the “kd (1/s) cyBCMA @25° C.” value is 0.0148 s⁻¹.
Taken in the same sequence, the figures for B6 were 290000 M⁻¹ s⁻¹ and 0.0121 s⁻¹.
As for B7, the “ka (1/Ms) cyBCMA @ 25° C.” value is 830000 M⁻¹ s⁻¹ and the “kd (1/s) cyBCMA @25° C.” value worked out at 0.00557 s⁻¹.
Taken in the same sequence, the figures for B8 were 318000 M⁻¹ s⁻¹ and 0.018 s⁻¹.
In the case of B9, the “ka (1/Ms) cyBCMA @ 25° C.” value is 364000 M⁻¹ s⁻¹ and the “kd (1/s) cyBCMA @25° C.” value is 0.013 s⁻¹.

Staying with this test, now noted: 37° C.
Consider B10, for which the “ka (1/Ms) cyBCMA @ 37° C.” value came out at 2.1e+06 M⁻¹ s⁻¹ and the “kd (1/s) cyBCMA @37° C.” value is 0.00796 s⁻¹.
As to B11, the “ka (1/Ms) cyBCMA @ 37° C.” value turned out to be 2.46e+06 M⁻¹ s⁻¹ and the “kd (1/s) cyBCMA @37° C.” value came out at 0.00621 s⁻¹.
B12: the “ka (1/Ms) cyBCMA @ 37° C.” value was 2.01e+06 M⁻¹ s⁻¹ and the “kd (1/s) cyBCMA @37° C.” value worked out at 0.00191 s⁻¹.
For B13 the same measures were 2.18e+06 M⁻¹ s⁻¹ and 0.00658 s⁻¹.
B14: the “ka (1/Ms) cyBCMA @ 37° C.” value was 2.09e+06 M⁻¹ s⁻¹ and the “kd (1/s) cyBCMA @37° C.” value is 0.00757 s⁻¹.
Taken in the same sequence, the figures for B15 were 2.24e+06 M⁻¹ s⁻¹ and 0.00618 s⁻¹.
For B16, the “ka (1/Ms) cyBCMA @ 37° C.” value was 1.99e+06 M⁻¹ s⁻¹ and the “kd (1/s) cyBCMA @37° C.” value was found to be 0.00755 s⁻¹.
For the molecule B17, the “ka (1/Ms) cyBCMA @ 37° C.” value worked out at 1.85e+06 M⁻¹ s⁻¹ and the “kd (1/s) cyBCMA @37° C.” value was found to be 0.00564 s⁻¹.

In a further test the target is T1, hBCMA (human BCMA). The test can be described thus: Kinetics and affinity of hBCMA/human IgG interactions by SPR (Bio-Rad Proteon XPR36). The test is classed as binding. The settings on record: huBCMA, 25° C. Here is the method: All experiments were performed on a Bio-Rad Proteon XPR36 surface Plasmon resonance biosensor (Bio-Rad, Hercules, Calif.). An array of anti-BCMA antibodies was prepared using an amine-coupling method on a Bio-Rad GLC Sensor Chip similar to that described in Abdiche, et al., Anal. Biochem. 411, 139-151 (2011). The analysis temperature for the immobilization was 25° C. and the running buffer was HBS-T+(10 mM HEPES, 150 mM NaCl, 0.05% Tween-20, pH 7.4). Channels were activated in the analyte (horizontal) direction by injecting a mixture of 1 mM ECD and 0.25 mM NHS for 3 minutes at a flow rate of 30 μL/min. IgGs were immobilized on the activated spots by injecting them in the ligand (vertical) direction at 20 μg/mL in 10 mM Acetate pH 4.5 buffer for 1.5 minutes at […]. The activated surfaces were blocked by injecting 1M ethanolamine, pH 8.5 in the analyte direction for 3 minutes at 30 μL/min.
The analysis temperature for the hBCMA binding analysis was 37° C. or 25° C. in a running buffer of HBS-T+, supplemented with 1 mg/mL BSA. A kinetic titration method was employed for the interaction analysis as described in Abdiche, et al. The hBCMA (human BCMA) analyte was injected in the analyte direction using a series of injections from low to high concentration. The concentrations used were 0.08 nM, 0.4 nM, 2 nM, 10 nM and 50 nM (a 5-membered series, with a 5-fold dilution factor and top concentration of 50 nM). The association time for a given analyte dilution was two minutes. Immediately after the 50 nM hBCMA injection, dissociation was monitored for 2 hours. Prior to the hBCMA analyte injections, buffer was injected 5 times using the same association and dissociation times at the hBCMA analyte cycles to prepare a buffer blank sensorgram for double-referencing purposes (double referencing as described in Myszka, J. Mol. Recognit. 12, 279-284 (1999).
The sensorgrams were double-referenced and fit to a 1:1 Langmuir with mass transport kinetic titration model in BIAevaluation Software version 4.1.1 (GE Lifesciences, Piscataway, N.J.). The sensorgrams and fits are shown in FIG. 1, and the kinetics and affinity parameters for various anti-BCMA antibodies of the present invention are shown in Tables 6A-6C.
Regarding B1, the “ka (1/Ms) huBCMA @ 25° C.” value is 1.17e+06 M⁻¹ s⁻¹ and the “kd (1/s) huBCMA @25° C.” value was 0.00461 s⁻¹.
For B2 the same measures were 928000 M⁻¹ s⁻¹ and 0.00227 s⁻¹.
Taken in the same sequence, the figures for B3 were 907000 M⁻¹ s⁻¹ and 0.00403 s⁻¹.
For B4 the same measures were 1.41e+06 M⁻¹ s⁻¹ and 0.00141 s⁻¹.
As for B5, the “ka (1/Ms) huBCMA @ 25° C.” value worked out at 763000 M⁻¹ s⁻¹ and the “kd (1/s) huBCMA @25° C.” value came to 0.00097 s⁻¹.
For B6 the same measures were 428000 M⁻¹ s⁻¹ and 0.00123 s⁻¹.
For B7, the “ka (1/Ms) huBCMA @ 25° C.” value stood at 936000 M⁻¹ s⁻¹ and the “kd (1/s) huBCMA @25° C.” value was found to be 0.000533 s⁻¹.
For B8 the same measures were 445000 M⁻¹ s⁻¹ and 0.0039 s⁻¹.
As to B9, the “ka (1/Ms) huBCMA @ 25° C.” value was determined as 457000 M⁻¹ s⁻¹ and the “kd (1/s) huBCMA @25° C.” value is 0.000969 s⁻¹.

Staying with this test, now noted: huBCMA, 37° C.
For the molecule B10, the “ka (1/Ms) huBCMA @ 37° C.” value worked out at 3.12e+06 M⁻¹ s⁻¹ and the “kd (1/s) huBCMA @37° C.” value was determined as 0.00147 s⁻¹.
For B11 the same measures were 2.58e+06 M⁻¹ s⁻¹ and 0.00156 s⁻¹.
Taken in the same sequence, the figures for B12 were 2.82e+06 M⁻¹ s⁻¹ and 0.00162 s⁻¹.
On to B13, for which the “ka (1/Ms) huBCMA @ 37° C.” value came out at 2.56e+06 M⁻¹ s⁻¹ and the “kd (1/s) huBCMA @37° C.” value is 0.00119 s⁻¹.
For B14 the same measures were 2.4e+06 M⁻¹ s⁻¹ and 0.00129 s⁻¹.
Taken in the same sequence, the figures for B15 were 2.6e+06 M⁻¹ s⁻¹ and 0.00138 s⁻¹.
Taken in the same sequence, the figures for B16 were 2.43e+06 M⁻¹ s⁻¹ and 0.00147 s⁻¹.
As to B17, the “ka (1/Ms) huBCMA @ 37° C.” value was 3.07e+06 M⁻¹ s⁻¹ and the “kd (1/s) huBCMA @37° C.” value was determined as 0.00155 s⁻¹.
